Test [1] addresses IL23R_huFC (human) (UniProt Q5VWK5). Kind of test: IL23-IL23R competitive binding ELISA.
Target sequence in this assay (Q5VWK5 24-353 limits assumed): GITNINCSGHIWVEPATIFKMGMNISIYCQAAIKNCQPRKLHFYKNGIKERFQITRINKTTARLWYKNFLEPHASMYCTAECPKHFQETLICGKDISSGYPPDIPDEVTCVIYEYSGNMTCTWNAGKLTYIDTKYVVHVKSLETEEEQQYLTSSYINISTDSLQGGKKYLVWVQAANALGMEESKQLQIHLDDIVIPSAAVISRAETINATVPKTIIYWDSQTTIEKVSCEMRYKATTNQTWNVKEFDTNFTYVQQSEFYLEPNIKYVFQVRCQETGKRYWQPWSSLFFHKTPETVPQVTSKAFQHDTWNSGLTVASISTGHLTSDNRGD
Test [2] has the same target. Briefly: human ELISA vs IL-23. In general terms: An ELISA detects its analyte on a solid surface through an enzyme-linked reagent.
Target sequence in this assay (Q5VWK5 24-353): as the sequence (Q5VWK5 24-353 limits assumed) above
A further test has as its target Rat IL-23R_huFC (rat) (UniProt F1LX96). Kind of test: rat IL-23R competitive binding ELISA.

*1 amine or outer side, *2 acyl side, *3 side chain or, on linkers, in order; H or OH if unused. Bridges are numbered along the chain shown (N, C = ends). Primed or numbered codes have the meaning given here. [ ]: non-standard residue; d: D form. Phe(4-(2-acetylaminoethoxy))″ = 4-(2-acetylaminoethoxy)phenylalanine, CC(=O)NCCOc1ccc(C[C@H](N[*:1])C(=O)[*:2])cc1; Phe(4-OMe)(4) = O-methyl-L-tyrosine, COc1ccc(C[C@H](N[*:1])C(=O)[*:2])cc1; 2Nal = N[C@@H](Cc1ccc2ccccc2c1)C(=O)O; AEF = NCCOc1ccc(C[C@H](N)C(=O)O)cc1; Cit = NC(=O)NCCC[C@H](N)C(=O)O; αMeOrn = C[C@](N)(CCCN)C(=O)O; Pen = CC(C)(S)[C@H](N)C(=O)O; αMeK = C[C@](N)(CCCCN)C(=O)O; Orn = NCCC[C@H](N)C(=O)O; Dab = NCC[C@H](N)C(=O)O; Abu = CC[C@H](N)C(=O)O; Dap = NC[C@H](N)C(=O)O; Aib = CC(C)(N)C(=O)O

The IC50 is the concentration that inhibits the measured activity by half. Turning to Ac-[Pen][Dap](Ac)TWQ[Pen][Phe(4-(2-acetylaminoethoxy))″][2Nal][αMeK](Ac)ENG-NH2 (disulfide 1-6 (inferred)) [Ac-[Pen]-Dap(Ac)TWQ-[Pen]-[Phe[4-(2-acetylaminoethoxy)]-[2-Nal]-[α-MeLys(Ac)]-ENG-NH2], the IC50 with IL23R_huFC (human) [1] fell in the range of 10 to 25 nM. As for Ac-[Abu]QTWQC[AEF][2Nal][Orn][Dap]NG-NH2 (thioether 1-6) [Ac-Cyclo-[[Abu]-QTWQC]-[Phe[4-(2-aminoethoxy)]]-[2-Nal]-[Orn]-[Dap]-NG-NH2], the concentration for half-maximal inhibition (IC50) with IL23R_huFC (human) [2] was in the range of 25 to 100 nM. For the molecule Ac-[Abu]QTWQC[AEF][2Nal][Aib]E[Dab](Ac)G-NH2 (thioether 1-6) [Ac-Cyclo-[[Abu]-QTWQC]-[Phe[4-(2-aminoethoxy)]]-[2-Nal]-[Aib]-E-[Dab(Ac)]-G-NH2], the IC50 with IL23R_huFC (human) [2] is below 10 nM. Regarding Ac-[Pen][Dap]TWQ[Pen][AEF][2Nal][αMeK]ENG-NH2 (disulfide 1-6 (inferred)) [Ac-[Pen]-[Dap]-TWQ-[Pen]-[Phe[4-(2-aminoethoxy)]-[2-Nal]-[α-MeLys]-ENG-NH2], the IC50 with IL23R_huFC (human) [1] is below 10 nM; with Rat IL-23R_huFC (rat) it was 25 to 100 nM. For XQTWQXFXXENN (Ac; Pen-Pen disulfide; Phe[4-(2-acetylaminoethoxy)]; 2-Nal; Aib; NH2) [Ac-[Pen]-QTWQ-[Pen]-[Phe[4-(2-acetylaminoethoxy)]-[2-Nal]-[Aib]-ENN-NH2], the IC50 with IL23R_huFC (human) [1] fell in the range of 10 to 25 nM.

The molecule XQTWQXFXXKNN (Ac; Pen-Pen disulfide; Phe[4-(2-acetylaminoethoxy)]; 2-Nal; Aib; Lys(Ac); NH2) [Ac-[Pen]-QTWQ-[Pen]-[Phe[4-(2-acetylaminoethoxy)]-[2-Nal]-[Aib]-[Lys(Ac)]-NN-NH2] yielded an IC50 with IL23R_huFC (human) [1] below 10 nM. The molecule Ac-[Abu]QTWQC[AEF][2Nal][Aib]E[Dap](Ac)G-NH2 (thioether 1-6) [Ac-Cyclo-[[Abu]-QTWQC]-[Phe[4-(2-aminoethoxy)]]-[2-Nal]-[Aib]-E-[Dap(Ac)]-G-NH2] had an IC50 with IL23R_huFC (human) [2] of 10 to 25 nM.

B1: Ac-[Pen]-QTWQ-[Pen]-[2-Nal]-[2-Nal]-[α-MeLys]-ENG-NH2 (peptide)
peptide: Ac-[Pen]QTWQ[Pen][2Nal][2Nal][αMeK]ENG-NH2
modifications: disulfide 1-6
SMILES: CC(=O)N[C@@H]1C(=O)N[C@@H](CCC(N)=O)C(=O)N[C@@H]([C@@H](C)O)C(=O)N[C@@H](Cc2c[nH]c3ccccc23)C(=O)N[C@@H](CCC(N)=O)C(=O)N[C@H](C(=O)N[C@@H](Cc2ccc3ccccc3c2)C(=O)N[C@@H](Cc2ccc3ccccc3c2)C(=O)N[C@@](C)(CCCCN)C(=O)N[C@@H](CCC(=O)O)C(=O)N[C@@H](CC(N)=O)C(=O)NCC(N)=O)C(C)(C)SSC1(C)C
In the case of B1, the IC50 with IL23R_huFC (human) [1] and in the test with Rat IL-23R_huFC (rat) was 100 to 1000 nM each time. Turning to Ac-[Pen][αMeOrn](Ac)TWQ[Pen][Phe(4-(2-acetylaminoethoxy))″][2Nal][αMeK](Ac)ENG-NH2 (disulfide 1-6 (inferred)) [Ac-[Pen]-[α-MeOrn(Ac)]-TWQ-[Pen]-[Phe[4-(2-acetylaminoethoxy)]-[2-Nal]-[α-MeLys(Ac)]-ENG-NH2], the IC50 in the test with IL23R_huFC (human) [1] lay within 100 to 1000 nM.

For the molecule XQTWQXYXXENG (Ac; Pen-Pen disulfide; 1-Nal; α-MeOrn; NH2) [Ac-[Pen]-QTWQ-[Pen]-Y-[1-Nal]-[α-MeOrn]-ENG-NH2], the IC50 with IL23R_huFC (human) [1] and with Rat IL-23R_huFC (rat) was 100 to 1000 nM each time.

B2: [Ac-[Pen]-NTWQ-[Pen]-[Phe(4-CONH2)]-[2-Nal]-[Acvc]-KNN-NH2]2DIG (peptide)
peptide: XNTWQXFXXKNN
modifications: Ac; Pen-Pen disulfide; Phe(4-CONH2); 2-Nal; Acvc; NH2; DIG linker joins the two subunits
Turning to B2, the IC50 in the test with IL23R_huFC (human) [1] was below 10 nM; in the test with Rat IL-23R_huFC (rat), 10 to 25 nM. Ac-[Pen][αMeOrn]TWQ[Pen][AEF][2Nal][αMeK]ENG-NH2 (disulfide 1-6 (inferred)) [Ac-[Pen]-[α-MeOrn]-TWQ[Pen]-[Phe[4-(2-aminoethoxy)]-[2-Nal]-[α-MeLys]-ENG-NH2]: the IC50 with IL23R_huFC (human) [1] lay within 100 to 1000 nM.

With XQTWQXYXXENG (Ac; Pen-Pen disulfide; 2-Nal; α-MeOrn; NH2) [Ac-[Pen]-QTWQ-[Pen]-Y-[2-Nal]-[α-MeOrn]-ENG-NH2], the concentration for half-maximal inhibition (IC50) with IL23R_huFC (human) [1] fell in the range of 25 to 100 nM; in the test with Rat IL-23R_huFC (rat) it was 100 to 1000 nM. With XQTWQXFXXKNN (Ac; Pen-Pen disulfide; Phe[4-(2-aminoethoxy)]; 2-Nal; Aib; Lys(Ac); NH2) [Ac-[Pen]-QTWQ-[Pen]-[Phe[4-(2-aminoethoxy)]-[2-Nal]-Aib-[Lys(Ac)]-NN-NH2], in the test with IL23R_huFC (human) [1], the IC50 was below 10 nM. In the test with IL23R_huFC (human) [2], Ac-[Abu]QTWQC[Phe(4-OMe)(4)][2Nal][Orn][Dap]NG-NH2 (thioether 1-6) [Ac-Cyclo-[[Abu]-QTWQC]-[Phe(4-OMe)]-[2-Nal]-[Orn]-[Dap]-NG-NH2] showed an IC50 of 100 to 1000 nM. In turn, XNTWQXFXXKNA (Ac; Pen-Pen disulfide; Phe[4-(2-aminoethoxy)]; 2-Nal; Aib; Lys(Ac); βAla; NH2) [Ac-[Pen]-NTWQ-[Pen]-[Phe[4-(2-aminoethoxy)]-[2-Nal]-[Aib]-[Lys(Ac)]-N-[βAla]-NH2] registered an IC50 with Rat IL-23R_huFC (rat) of 10 to 25 nM. On to Ac-[Abu]QTWQC[AEF][2Nal][Cit][Dap]NG-NH2 (thioether 1-6) [Ac-Cyclo-[[Abu]-QTWQC]-[Phe[4-(2-aminoethoxy)]]-[2-Nal]-[Cit]-[Dap]-NG-NH2], for which the concentration for half-maximal inhibition (IC50) with IL23R_huFC (human) [2] fell in the range of 10 to 25 nM. In the case of XQTWQXFXXKNG (Ac; Pen-Pen disulfide; Phe(4-OMe); 2-Nal; α-MeOrn; Lys(Ac); NH2) [Ac-[Pen]-QTWQ-[Pen]-[Phe(4-OMe)]-[2-Nal]-[α-MeOrn]-[Lys(Ac)]-NG-NH2], the IC50 with IL23R_huFC (human) [1] is 100 to 1000 nM. Same read-out and setting: to XQTWQXFXXENN (Ac; Pen-Pen disulfide; Phe[4-(2-aminoethoxy)]; 2-Nal; Aib; NH2) [Ac-[Pen]-QTWQ-[Pen]-[Phe[4-(2-aminoethoxy)]-[2-Nal]-[Aib]-ENN-NH2] belongs below 10 nM.

B3: [Ac-[Pen]-NTWQ-[Pen]-[Phe(4-CONH2)]-[2-Nal]-[Aib]-KNN-NH2]2DIG (peptide)
peptide: XNTWQXFXXKNN
modifications: Ac; Pen-Pen disulfide; Phe(4-CONH2); 2-Nal; Aib; NH2; DIG linker joins the two subunits
Regarding B3, the figures for the IC50 with IL23R_huFC (human) [1] and with Rat IL-23R_huFC (rat) were below 10 nM and 10 to 25 nM, respectively. Ac-[Abu]QTWQC[AEF][2Nal][Orn][Dap](Ac)NG-NH2 (thioether 1-6) [Ac-Cyclo-[[Abu]-QTWQC]-[Phe[4-(2-aminoethoxy)]]-[2-Nal]-[Orn]-[Dap(Ac)]-NG-NH2] returned an IC50 in the test with IL23R_huFC (human) [2] of 25 to 100 nM. As to XNTWQXFXXKNN (Ac; Pen-Pen disulfide; Phe[4-(2-aminoethoxy)]; 2-Nal; Aib; Lys(Ac); NH2) [Ac-[Pen]-NTWQ-[Pen]-[Phe[4-(2-aminoethoxy)]-[2-Nal]-[Aib]-[Lys(Ac)]-NN-NH2], the half-inhibitory concentration (IC50) in the test with IL23R_huFC (human) [1] and with Rat IL-23R_huFC (rat) was below 10 nM throughout.

For the origin of these results see patent US20190300590A1.
